Experimental data taken from patent US20230416402A1 (DRAGONFLY THERAPEUTICS, published 2023).

Molecular target: HER2 (human, UniProt P04626 23-1255)
Test: cell-based or functional assay

B1: A49-F3′-TriNKET-Trastuzumab (bispecific antibody, human IgG1)
heavy: EVQLVESGGGLVKPGGSLRLSCAASGFTFSSYSMNWVRQAPGKGLEWVSSISSSSSYIYYADSVKGRFTISRDNAKNSLYLQMNSLRAEDTAVYYCARGAPMGAAAGWFDPWGQGTLVTVSSASTKGPSVFPLAPSSKSTSGGTAALGCLVKDYFPEPVTVSWNSGALTSGVHTFPAVLQSSGLYSLSSVVTVPSSSLGTQTYICNVNHKPSNTKVDKKVEPKSCDKTHTCPPCPAPELLGGPSVFLFPPKPKDTLMISRTPEVTCVVVDVSHEDPEVKFNWYVDGVEVHNAKTKPREEQYNSTYRVVSVLTVLHQDWLNGKEYKCKVSNKALPAPIEKTISKAKGQPREPQVCTLPPSRDELTENQVSLTCLVKGFYPSDIAVEWESNGQPENNYKTTPPVLDSDGSFFLYSWLTVDKSRWQQGNVFSCSVMHEALHNHYTQKSLSLSPG
chain: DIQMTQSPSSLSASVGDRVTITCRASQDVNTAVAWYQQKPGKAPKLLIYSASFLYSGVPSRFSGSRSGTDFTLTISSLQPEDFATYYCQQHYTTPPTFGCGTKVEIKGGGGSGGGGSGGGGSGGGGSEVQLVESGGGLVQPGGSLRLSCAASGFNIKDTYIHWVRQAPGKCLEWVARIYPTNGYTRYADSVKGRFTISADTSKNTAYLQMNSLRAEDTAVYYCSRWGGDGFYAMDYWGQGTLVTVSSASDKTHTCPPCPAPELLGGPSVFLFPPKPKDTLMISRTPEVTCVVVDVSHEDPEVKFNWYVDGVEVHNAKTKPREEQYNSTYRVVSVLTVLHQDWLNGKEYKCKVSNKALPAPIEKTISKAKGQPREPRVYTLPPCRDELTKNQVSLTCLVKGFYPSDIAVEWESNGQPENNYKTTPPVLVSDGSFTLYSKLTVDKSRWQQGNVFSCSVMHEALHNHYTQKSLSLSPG
light: DIQMTQSPSSVSASVGDRVTITCRASQGISSWLAWYQQKPGKAPKLLIYAASSLQSGVPSRFSGSGSGTDFTLTISSLQPEDFATYYCQQGVSFPRTFGGGTKVEIKRTVAAPSPPSDEQLKSGTASVVCLLNNFYPREAKVQWKVDNALQSGNSQESVTEQDSKDSTYSLSSTLTLSKADYEKHKVYACEVTHQGLSSPVTKSFNRGEC
B1 was tested, and the “EC50 in KHYG-1-CD16V cell killing of Hs578T cells (DELFIA cytotoxicity assay)” value was 376 pM, the “EC50 in KHYG-1-CD16V cell-mediated cytolysis of BT-20 cells (DELFIA cytotoxicity assay)” value was 1160 pM and the “EC50 in NK cell-mediated killing of MCF-7 cells (DELFIA cytotoxicity assay)” value was 878 pM. For the same binder, the “EC50 in NK cell-mediated lysis of ZR75-1 cells (DELFIA cytotoxicity assay)” value was 43 pM, the “EC50 in enhancing NK cell-mediated cytolysis of SKBR-3 cells (DELFIA cytotoxicity assay, 3 healthy donors)” value was 8 pM and the “EC50 in inducing NK cell-mediated lysis of 786-0 cells (DELFIA cytotoxicity assay)” value was 638 pM. The “EC50 in triggering NK cell-mediated killing of H661 cells (DELFIA cytotoxicity assay)” value was 54 pM and the “fold higher potency than trastuzumab in triggering NK cell-mediated killing of SKBR-3 cells” value was 2.5 fold.
